Measured values taken from publication PMC4571948, “Identification of a Novel Sequence Motif Recognized by the Ankyrin Repeat Domain of zDHHC17/13 S-Acyltransferases*” (The Journal of Biological Chemistry, 2015).

Biological target: T1, GST-17NAnk (GST-tagged N-terminal (1–305) zDHHC17) (murine, UniProt Q80TN5 1-305)
T1 construct: zDHHC17, murine cDNA, N-terminal residues 1–305 with the AR domain; also called GST-17Ank; GST-tagged AR-containing cytosolic region of zDHHC17; source: E. coli BL21(DE3)pLysS, purified (glutathione resin)
T1 sequence (looked up): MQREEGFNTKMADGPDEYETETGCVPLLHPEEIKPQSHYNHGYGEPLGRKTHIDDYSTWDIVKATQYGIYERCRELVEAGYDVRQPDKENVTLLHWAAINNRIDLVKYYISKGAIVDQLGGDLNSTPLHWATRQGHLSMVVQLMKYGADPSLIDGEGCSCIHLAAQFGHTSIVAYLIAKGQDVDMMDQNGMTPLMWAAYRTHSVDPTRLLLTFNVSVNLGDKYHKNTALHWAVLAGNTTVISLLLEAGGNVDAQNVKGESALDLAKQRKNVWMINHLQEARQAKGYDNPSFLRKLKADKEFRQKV
Test: pull-down; 20 μg GST-17NAnk (or GST) on 10 μl glutathione-Sepharose, 20 μg His6-CSPα or His6-SNAP25b(93–206) (and competing amounts of the other), overnight at 4 °C, PBS washes, Coomassie staining
Settings: both partners purified

binding result: binds
B1: His6-CSPα (natural protein, bovine, UniProt Q29455 1-198, looked up)
chain: MADQRQRSLSTSGESLYHVLGLDKNATSDDIKKSYRKLALKYHPDKNPDNPEAADKFKEINNAHAILTDATKRNIYDKYGSLGLYVAEQFGEENVNTYFVLSSWWAKALFIFCGLLTCCYCCCCLCCCFNCCCGKCKPKAPEGEETEFYVSPEDLEAQLQSDEREAADTPIVIQPASATETTQLTADSHPSYHTDGFN
notes: CSPα, bovine cDNA; also called His-tagged CSPα; source: E. coli BL21(DE3)pLysS, purified (Ni2+-NTA)
